The target of test [1] is CCR4 on CCR4-transfected B300.19 mouse lymphoma cells (human) (UniProt P51679). Briefly: FACS, CCR4-transfected B300.19 cells, biotinylated chemokine then FITC-avidin.
The target is the same in test [2]. The test can be described thus: cell-based or functional assay.
Test [3] addresses T1, FITC-conjugated avidin (BD Biosciences) (UniProt P02701 25-152, FITC conjugate).
T1 construct: Detection reagent; also called FITC-avidin; FITC-labeled avidin
The test can be described thus: FACS; avidin binds the biotin of the receptor-bound chemokine. From the text: After 2 repetitive washings using staining buffer, cells were fixed in PBS with 1% FCS 1% and 1% PFA before FACS analysis.

*: point of attachment. Biotin = O=C1N[C@H]2[C@H](CS[C@H]2CCCCC(=O)*)N1

Sequence of CCR4 on CCR4-transfected B300.19 mouse lymphoma cells (human) (P51679 whole entry): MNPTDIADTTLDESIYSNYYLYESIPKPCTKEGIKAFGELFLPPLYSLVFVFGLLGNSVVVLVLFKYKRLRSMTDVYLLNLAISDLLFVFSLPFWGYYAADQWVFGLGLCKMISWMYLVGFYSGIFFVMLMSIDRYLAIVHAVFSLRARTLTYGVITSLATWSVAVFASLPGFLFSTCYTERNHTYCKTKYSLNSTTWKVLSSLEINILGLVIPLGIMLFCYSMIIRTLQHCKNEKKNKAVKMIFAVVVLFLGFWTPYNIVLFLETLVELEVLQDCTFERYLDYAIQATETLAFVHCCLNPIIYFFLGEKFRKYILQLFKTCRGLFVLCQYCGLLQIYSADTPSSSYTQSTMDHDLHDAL
T1 sequence (P02701 25-152 limits assumed): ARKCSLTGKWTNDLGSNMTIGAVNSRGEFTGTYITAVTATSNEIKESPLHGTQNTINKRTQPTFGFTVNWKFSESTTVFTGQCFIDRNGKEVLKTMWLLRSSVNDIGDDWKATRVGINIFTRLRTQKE

Regarding “biotinylated CCL22(K49) analogue (from UniProt O00626 25-93) (ligand)”, the MFI in test [1] worked out at 6.1. Besides, in test [2], the dose at which minimal migration is still detectable was 0.1 ng/mL and the dose for optimal migration of CCR4-transfected cells was 1 to 10 ng/mL.

On to “biotinylated CCL22(K61) analogue (from UniProt O00626 25-93) (ligand)”, for which the MFI in test [1] was found to be 6.6. In test [2], this molecule registered a dose at which minimal migration is still detectable of 0.1 ng/mL and a dose for optimal migration of CCR4-transfected cells of 1 to 10 ng/mL.

In test [1], “biotinylated CCL22(G1) analogue (from UniProt O00626 25-93) (ligand)” registered an MFI of 5.9. In test [2], this molecule returned a dose at which minimal migration is still detectable of 0.1 ng/mL and a dose for optimal migration of CCR4-transfected cells of 1 to 10 ng/mL.

B1: biotinylated CCL22(K66) analogue (ligand)
chain: GPYGANMEDSVCCRDYVRYRLPLRVVKHFYWTSDSCPRPGVVLLTFRDKEICADPRVPWVKMILNK(Biotin)LSQ
notes: Synthetic human CCL22 with one biotin; also called biotinylated h-MDC
As for B1, the binding result in test [3] is recorded as “binds”.

The values are drawn from patent US20040138422A1 (published 2004).
